Assays:
[1] = biological target: T1, rat glucagon receptor (Rattus norvegicus, UniProt P30082); test: cAMP response of clone KZ6/rGR-DHFR-2 by cAMP [^125 I] scintillation proximity assay; type: cell-based; conditions: 10 minutes at 37° C., 10 μM IBMX, read-out: ED50 (the source's name)
T1 construct: pLJ4 contained an approximately 2 kb insert encoding a 485 amino acid protein; expressed in transfected cells; host or cells: BHK/KZ6-19-46 (BHK570 with CRE-luciferase plasmid KZ6), clone KZ6/rGR-DHFR-2
T1 sequence (P30082 27-485): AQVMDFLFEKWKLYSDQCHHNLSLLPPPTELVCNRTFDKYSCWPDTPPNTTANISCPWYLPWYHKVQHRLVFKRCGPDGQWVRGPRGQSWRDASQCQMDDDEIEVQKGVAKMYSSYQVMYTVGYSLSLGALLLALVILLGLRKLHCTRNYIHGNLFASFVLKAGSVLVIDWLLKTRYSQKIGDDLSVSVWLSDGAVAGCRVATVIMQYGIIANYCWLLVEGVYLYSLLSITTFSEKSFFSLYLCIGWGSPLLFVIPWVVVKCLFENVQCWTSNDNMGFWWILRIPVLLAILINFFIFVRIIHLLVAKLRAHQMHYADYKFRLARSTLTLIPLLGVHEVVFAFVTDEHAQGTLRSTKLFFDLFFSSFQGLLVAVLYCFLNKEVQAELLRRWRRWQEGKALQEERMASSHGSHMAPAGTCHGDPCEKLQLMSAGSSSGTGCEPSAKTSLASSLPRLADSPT
Method: Briefly, 100 μl of 2×10^5 cells per ml KZ6/rGR-DHFR-2 cells were plated into the wells of a multi-well culture dish and grown overnight in selection media.
The cells were incubated with the agonists for 10 minutes at 37° C., 5% CO2. Following incubation, the cells were lysed by the addition of 200 μl of boiling water to each well. After 15 minutes the supernatants were collected and diluted 1:5 or 1:40 in acetate buffer (cAMP [^125 I] Scintillation Proximity Assay System (Amersham)). Samples were acetylated using triethylamine and acetic anhydride according to the protocol provided by the manufacturer.
A 100 μl aliquot of each acetylated sample was combined with 75 μl of ^125 I-cAMP, 75 μl anti-succinyl cAMP antisera and 75 μl of donkey anti-rabbit IgG coupled SPA beads (all assay solutions provided in the cAMP [^125 I] Scintillation Proximity Assay System (Amersham)) in a well of an LKB T-tray. The trays were sealed and incubated overnight with continuous shaking on a rotary platform shaker at 200 rpm. The samples were counted in a 1205 BETAPLATE liquid scintillation counter (Pharmacia LKB Instruments Inc., Gaithersburg, Md.). A standard curve of 2-128 fmol acetylated cAMP was also run. Total ^125 I-cAMP bound and non-specific binding were also determined.

[2] = biological target: T2, cloned receptor (rat glucagon receptor, pLJ4) (Rattus norvegicus, UniProt P30082); test: Competition binding / Scatchard analysis with ^125 I-glucagon on membranes of pLJ4 BHK transfectants
T2 construct: pLJ4 contained an approximately 2 kb insert encoding a 485 amino acid protein; expressed in transfected cells; host or cells: BHK570
T2 sequence (P30082 27-485): as above
Method: Membranes from the pLJ4 BHK transfectants were compared with rat liver membrane preparations for the ability to bind ^125 I-glucagon. Membranes were prepared essentially described by Rodbell et al. (J. Biol Chem. 246:1861-1871, 1971, which is incorporated by reference herein in its entirety). Two batches of liver membranes were each prepared from approximately 80 gm of liver from 12 to 16 decapitated young female rats. The livers were removed quickly and placed into an iced beaker. The livers were separated into ten-gram portions. The portions were minced with scissors, and connective tissue was removed during the mincing procedure. The portions were separately homogenized in a Dounce homogenizer. To each portion, 25 ml of Medium (Table 2) was added to the minced tissue in the homogenizer, and the tissue was homogenized in an ice bucket with eight vigorous strokes of the loose pestle. After homogenization, the homogenates were pooled into 450 ml of cold Medium (Table 2). The pooled homogenates were stirred for 3 minutes and filtered through two layers of cheesecloth followed by filtering through four layers of cheesecloth. The homogenates were then centrifuged for 30 minutes at 1500×g at 4° C. The supernatants were discarded, and the pellets were pooled into a clean Dounce homogenizer. The pellets were resuspended with three gentle strokes of the loose pestle. The resuspended pellets were decanted into a 250 ml graduate containing 62 ml of 69% Sucrose Solution (Table 2). Distilled water was added to a final volume of 110 ml, and the mixture was thoroughly mixed and kept cold. The concentration of the solution was adjusted to 44.0%+/-0.1% using 69% sucrose or water as measured by a refractometer (Bausch & Lomb, Rochester, N.Y.). […]
To each tube 100 μl of 2× binding buffer; 20 μl of ^125 I-glucagon (Amersham); 20 μl of 1 mM NaHCO3; 20 μl 10 mM HOAc, 0.5% BSA (Novo Nordisk N/A, Bagsvaerd, Denmark); and 40 μl of distilled water were added. […] The supernatants from each sample were aspirated, and the pellets were counted. […]

glucagon: 29 amino acid hormone produced by the alpha cells of pancreatic islets; human glucagon (Sigma)
EC50 [1]: 0.00025 µM | Kd ([2]; Scatchard analysis, cloned receptor, BHK transfectant membranes, 30 minutes at 30° C., read-out: apparent Kd): 0.05 µM | ability to compete for ^125 I-glucagon binding ([2]; micromolar amounts (Table 7: 1 μM glucagon and des-His^1 [Glu^9]glucagon amide)): able to compete

Reference: US5919635A (ZymoGenetics, Inc., priority 1995, dated 1999)
